One test addresses T1, human C1q (human, UniProt P02745 23-245; P02746 28-253; P02747 29-245).
T1 construct: also called C1q (AbD Serotec 2221-5504)
The test is described as follows: C1q binding ELISA, antibody coated and titrated, bound human C1q detected with anti-C1q HRP; NA = do not show activity. On the procedure: Method: 96-well high protein binding ELISA plates (MaxSorp Nunc) were coated overnight at 4° C. with sample anti-CD47 antibody variants diluted in 0.05 M Sodium Bicarbonate Buffer (pH 9). Samples were diluted at a high concentration of 133.4 nM (20 μg/ml) and titrated 1:2 in an 11-point dilution curve. Plates were washed three times in PBS, 0.05% Tween 20 and blocked for 1 hour at room temperature with ELISA Diluent (0.1 M NAPO₄, 0.1 M NaCl, 0.1% gelatin, 0.05% Tween 20, 0.05% ProClin300). Plates were then washed again three times and incubated for two hours at room temperature with 2 μg/mL human C1q (AbD Serotec 2221-5504, 1 mg/mL stock) diluted in ELISA Diluent. Plates were then washed three times and incubated with sheep anti-human C1q HRP (AbD Serotec 2221-5004P) diluted 1:200 in ELISA Diluent for 1 hour at room temperature to detect bound Clq. Plates were then washed three times, then 100 μL of TMB solution was added. Reaction was quenched by adding 100 μl of 1M Phosphoric Acid and plate was read at 450 nm. Data are plotted using Prism6 as non-linear regression with log (inhibitor) vs. response—Variable slope (four parameters).
On the technique in general: An ELISA detects its analyte on a solid surface through an enzyme-linked reagent.

Test [1] has as its target T2, human CD47 on CCRF-CEM cells (human, UniProt Q08722 19-323).
T2 construct: Endogenous CD47 on the human T lymphoblast line CCRF-CEM (ATCC CCL-119); also called CD47-positive CCRF-CEM cells; CCRF-EM cells
The test can be described thus: flow cytometry on CCRF-CEM cells, MFI against concentration, one site specific binding with Hill slope. On the procedure: To obtain binding curves, sample variants were titrated 1:2 in FACS buffer (PBS 2% FCS) starting from a high concentration of ˜66 nM for each sample. 0.1×10⁶ CCRF-EM cells were plated in a 96 well plate and incubated in 50 μl FACS buffer containing the indicated concentration of sample variants for 1 hour in ice. Cells were then washed with 150 μ1 FACS buffer and incubated in 50 μl FACS buffer containing the secondary antibody (anti-human-IgG-PE, Jackson ImmunoResearch) diluted 1:100, for 1 hr in ice. Cells were then washed with FACS buffer and fixed in 2% PFA for acquisition with LSR II, DB flow cytometer (BD Biosciences, San Jose, Calif.). Flow Cytometry analysis was performed using FloJo software Version 9.6.4. To obtain titration curves and Kd, Mean Fluorescence Intensity (MFI) values were plotted against concentration (nM). Kd values were calculated using Prism 6, Non linear regression curve fit analysis, One Site Specific Binding with Hill Slope.
(In flow cytometry, cells or beads pass a laser one at a time.)

Test [2] has as its target T3, human CD47 antigen (human, UniProt Q08722 19-139, limits assumed).
T3 construct: also called CD47 analyte
The test can be described thus: SPR (Biacore): antibody captured on anti-human Fc CM5 chip, human CD47 as analyte at 3.125-50 nM, 1:1 Binding model; the text says this fit is not reliable. On the procedure: (§1) Immobilization: Anti-human Fc (AHC) surfaces were prepared by amine-coupling monoclonal mouse anti-human Fc IgG (included in the Biacore Human Antibody Capture Kit, GE Life Sciences Cat #BR-1008-39) to a Biacore CM5 sensor chip surface. The running buffer for the immobilization procedure was HBS-EP+ (10 mM HEPES, 150 mM NaCl, 3 mM EDTA, 0.05% v/v P-20 as surfactant). The following was performed in all four flow cells to prepare surfaces amine-coupled anti-human Fc IgG. The CM5 chip surface was activated by injecting a 1:1 (v/v) mixture of 400 mM EDC and 100 mM NHS for 7 minutes at 10 μL/min. Following this treatment, anti-human IgG was diluted to 25 μg/mL in 10 mM sodium acetate buffer pH 5.0, and injected over all the flow cells at 10 μL/min for 7 minutes. Then, Ethanolamine was injected at 10 μL/min for 7 minutes to block all the surfaces.
(§2) Kinetic Assays: For kinetic assays anti-CD47 antibodies were captured onto the anti-human Fc surfaces (surface preparation described above). For capture of the antibodies with human Fc, the antibodies were diluted to 10 μg/mL in HBS-EP+ running buffer. The antibody variants were immobilized by flowing over flow cell 2, 3 or 4 at a flow rate of 10 uL/min for 12 seconds. The analyte (human CD47 antigen) was diluted into running buffer to prepare a serial dilution series created with a 2-fold dilution factor to give concentrations of 3.125, 6.25, 12.5, 25 and 50 nM. After anti-CD47 antibody capture, the CD47 analyte was injected over the flow cells for 180 seconds (3 minutes) at 50 μL/min, and complex dissociation was monitored for 900 seconds (15 minutes). Buffer blanks were also run, and were used to reference the analyte binding data before fitting. Anti-human Fc surfaces were regenerated with two 30-second injections of 3M MgCl₂ at 30 uL/min between each analyte binding cycle.
(§3) Kinetic data analysis: Experimental data for a given antibody—antigen interaction were fit using the 1:1 binding model, using global Rₘₐₓ, global kₐ (association), global kd (dissociation) parameters, and constant RI (bulk refractive index) parameters.
Background: SPR reads the build-up and loss of mass on a sensor chip optically.

Test [3] concerns the target T3, human CD47 antigen. The test can be described thus: SPR (Biacore), experimental Rmax against theoretical Rmax, stoichiometry 2. On the procedure: as §2
Kinetic data analysis: Experimental data for a given antibody—antigen interaction were fit using the 1:1 binding model, using global Rₘₐₓ, global kₐ (association), global kd (dissociation) parameters, and constant RI (bulk refractive index) parameters. Fraction activity (% ligand activity) was determinined using the following formula to calculate the relationship between the theoretical Rₘₐₓ (Rₘₐₓ Theo) and the experimental Rₘₐₓ (Rₘₐₓ exp). In the formula, stoichiometry represents the instances of interaction between antibody and antigen, for instance, when the antibody is the ligand, each of the antibody arms can interact with antigen, thus the stoichiometry is 2.

Test [4] concerns the target T3, human CD47 antigen. The test is described as follows: SPR (Biacore), antibody captured on anti-human Fc, human CD47 as analyte 3.125-50 nM, 1:1 model. On the procedure: as §1, §2, §3

The Kd is the free concentration of one partner at which half of the binding sites on the other are occupied at equilibrium, for simple one-to-one binding. A low value points to higher affinity. As a reminder, the koff is a measure of how fast the partners let go of each other. As usually defined, the kon is the second-order rate constant of association. A lower kon goes with slow association.

T1 sequence (P02745 23-245 limits assumed, chain 1 of 3): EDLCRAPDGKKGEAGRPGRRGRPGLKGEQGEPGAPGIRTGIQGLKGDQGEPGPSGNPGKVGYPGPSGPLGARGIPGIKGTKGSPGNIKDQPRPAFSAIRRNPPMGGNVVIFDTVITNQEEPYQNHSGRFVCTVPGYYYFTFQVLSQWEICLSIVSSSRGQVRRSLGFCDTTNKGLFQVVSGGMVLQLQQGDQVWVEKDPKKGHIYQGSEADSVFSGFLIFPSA
T1 sequence (P02746 28-253 limits assumed, chain 2 of 3): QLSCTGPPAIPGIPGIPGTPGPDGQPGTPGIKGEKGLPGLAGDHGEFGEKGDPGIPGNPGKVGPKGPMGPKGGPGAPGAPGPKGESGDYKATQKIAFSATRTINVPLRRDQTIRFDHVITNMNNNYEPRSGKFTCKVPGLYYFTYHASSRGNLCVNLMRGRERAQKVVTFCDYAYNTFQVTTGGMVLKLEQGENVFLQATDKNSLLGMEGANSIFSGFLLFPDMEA
T1 sequence (P02747 29-245 limits assumed, chain 3 of 3): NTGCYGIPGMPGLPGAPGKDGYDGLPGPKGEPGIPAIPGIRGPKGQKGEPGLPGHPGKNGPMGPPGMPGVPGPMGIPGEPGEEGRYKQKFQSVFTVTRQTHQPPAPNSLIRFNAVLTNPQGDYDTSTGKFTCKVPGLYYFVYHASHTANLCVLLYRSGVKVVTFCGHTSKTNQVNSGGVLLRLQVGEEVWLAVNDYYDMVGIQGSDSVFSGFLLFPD

B1: anti-CD47 antibody IgG1-13m, cell-free expressed (antibody)
heavy: not shown
light: MNIQMTQSPSAMSASVGDRVTITCKASQDIHRYLSWFQQKPGKVPKHLIYRANRLVSGVPSRFSGSGSGTEFTLTISSLQPEDFATYYCLQYDEFPYTFGGGTKVEIKRTVAAPSVFIFPPSDEQLKSGTASVVCLLNNFYPREAKVQWKVDNALQSGNSQESVTEQDSKDSTYSLSSTLTLSKADYEKHKVYACEVTHQGLSSPVTKSFNRGEC
notes: IgG1 with 13 framework mutations in VH; cell-free system; also called IgG1-13m-CF
In the case of B1, the binding result in the test with human C1q is “no binding”. In test [1], this molecule showed a Kd of 0.15 nM. In the test with human CD47 antigen [2], this molecule returned a Kd of 4.21 nM, a koff of 0.00398 s⁻¹ and a kon of 946000 M⁻¹ s⁻¹.

B2: anti-CD47 antibody IgG1-parental, cell-free expressed (antibody)
heavy: not shown
light: MNIQMTQSPSAMSASVGDRVTITCKASQDIHRYLSWFQQKPGKVPKHLIYRANRLVSGVPSRFSGSGSGTEFTLTISSLQPEDFATYYCLQYDEFPYTFGGGTKVEIKRTVAAPSVFIFPPSDEQLKSGTASVVCLLNNFYPREAKVQWKVDNALQSGNSQESVTEQDSKDSTYSLSSTLTLSKADYEKHKVYACEVTHQGLSSPVTKSFNRGEC
notes: Parental (AB6.12) variable domains on IgG1; cell-free system; also called IgG1-parental-CF; IgG1-CF
Regarding B2, the binding result with human C1q is on record as “no binding”. The molecule also had a Kd in test [1] of 0.14 nM.

B3: anti-CD47 antibody IgG4P-parental, cell-free expressed (antibody)
heavy: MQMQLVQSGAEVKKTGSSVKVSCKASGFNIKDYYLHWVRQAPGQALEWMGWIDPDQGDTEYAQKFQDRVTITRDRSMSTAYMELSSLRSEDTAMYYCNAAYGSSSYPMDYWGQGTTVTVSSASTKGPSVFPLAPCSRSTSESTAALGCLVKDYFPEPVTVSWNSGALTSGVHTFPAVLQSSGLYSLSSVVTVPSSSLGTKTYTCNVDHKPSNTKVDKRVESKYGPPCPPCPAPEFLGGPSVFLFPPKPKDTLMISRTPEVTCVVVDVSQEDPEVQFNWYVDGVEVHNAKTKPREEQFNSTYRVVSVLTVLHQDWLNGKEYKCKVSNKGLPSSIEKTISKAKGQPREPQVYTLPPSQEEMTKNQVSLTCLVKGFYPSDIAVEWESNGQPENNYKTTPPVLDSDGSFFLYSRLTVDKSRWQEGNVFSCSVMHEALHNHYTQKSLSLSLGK
light: MNIQMTQSPSAMSASVGDRVTITCKASQDIHRYLSWFQQKPGKVPKHLIYRANRLVSGVPSRFSGSGSGTEFTLTISSLQPEDFATYYCLQYDEFPYTFGGGTKVEIKRTVAAPSVFIFPPSDEQLKSGTASVVCLLNNFYPREAKVQWKVDNALQSGNSQESVTEQDSKDSTYSLSSTLTLSKADYEKHKVYACEVTHQGLSSPVTKSFNRGEC
notes: Parental variable domains on IgG4 S228P; cell-free system; also called IgG4P-parental-CF
Consider B3, for which the binding result with human C1q is recorded as “no binding”.

B4: anti-CD47 antibody IgG4P-5m, cell-free expressed (antibody)
heavy: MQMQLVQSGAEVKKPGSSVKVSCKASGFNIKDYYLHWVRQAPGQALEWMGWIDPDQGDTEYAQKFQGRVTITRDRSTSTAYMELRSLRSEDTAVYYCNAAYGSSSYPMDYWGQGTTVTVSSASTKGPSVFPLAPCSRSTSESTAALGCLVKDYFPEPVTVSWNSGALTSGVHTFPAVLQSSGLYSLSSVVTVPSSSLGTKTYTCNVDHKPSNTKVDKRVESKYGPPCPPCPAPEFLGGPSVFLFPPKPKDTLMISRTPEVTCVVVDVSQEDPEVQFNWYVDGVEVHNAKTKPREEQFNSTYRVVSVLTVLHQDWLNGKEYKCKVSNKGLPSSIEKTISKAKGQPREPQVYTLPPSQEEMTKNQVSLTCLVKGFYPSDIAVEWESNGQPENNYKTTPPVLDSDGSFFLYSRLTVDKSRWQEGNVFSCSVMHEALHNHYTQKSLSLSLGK
light: MNIQMTQSPSAMSASVGDRVTITCKASQDIHRYLSWFQQKPGKVPKHLIYRANRLVSGVPSRFSGSGSGTEFTLTISSLQPEDFATYYCLQYDEFPYTFGGGTKVEIKRTVAAPSVFIFPPSDEQLKSGTASVVCLLNNFYPREAKVQWKVDNALQSGNSQESVTEQDSKDSTYSLSSTLTLSKADYEKHKVYACEVTHQGLSSPVTKSFNRGEC
notes: IgG4 S228P with 5 framework mutations in VH; cell-free system; also called IgG4P-5m-CF
Take B4: the “% Ligand activity” value with human CD47 antigen [3] was 38.2%. In the test with human CD47 antigen [4], binding was characterised by a dissociation constant (Kd) of 3.6 nM, the koff stood at 0.00254 s⁻¹ and the on-rate constant (kon) is 704000 M⁻¹ s⁻¹. Moreover, the binding result in the test with human C1q is given as “no binding”. The molecule also gave a dissociation constant Kd in test [1] of 0.14 nM.

B5: anti-CD47 antibody IgG1-13mZ, cell-free expressed (antibody)
heavy: not shown
light: MNIQMTQSPSAMSASVGDRVTITCKASQDIHRYLSWFQQKPGKVPKHLIYRANRLVSGVPSRFSGSGSGTEFTLTISSLQPEDFATYYCLQYDEFPYTFGGGTKVEIKRTVAAPSVFIFPPSDEQLKSGTASVVCLLNNFYPREAKVQWKVDNALQSGNSQESVTEQDSKDSTYSLSSTLTLSKADYEKHKVYACEVTHQGLSSPVTKSFNRGEC
notes: IgG1 Z allotype with 13 framework mutations in VH (13 + 2 mutations); cell-free system; also called IgG1-13mZ-CF
For B5, the binding result in the test with human C1q is recorded as “no binding”. Also, the Kd in test [1] is 0.21 nM. In addition, in the test with human CD47 antigen [2], binding was put at a Kd of 4.91 nM, the koff turned out to be 0.00404 s⁻¹ and the kon is 824000 M⁻¹ s⁻¹.

B6: anti-CD47 antibody IgG4PE-parental, cell-free expressed (antibody)
heavy: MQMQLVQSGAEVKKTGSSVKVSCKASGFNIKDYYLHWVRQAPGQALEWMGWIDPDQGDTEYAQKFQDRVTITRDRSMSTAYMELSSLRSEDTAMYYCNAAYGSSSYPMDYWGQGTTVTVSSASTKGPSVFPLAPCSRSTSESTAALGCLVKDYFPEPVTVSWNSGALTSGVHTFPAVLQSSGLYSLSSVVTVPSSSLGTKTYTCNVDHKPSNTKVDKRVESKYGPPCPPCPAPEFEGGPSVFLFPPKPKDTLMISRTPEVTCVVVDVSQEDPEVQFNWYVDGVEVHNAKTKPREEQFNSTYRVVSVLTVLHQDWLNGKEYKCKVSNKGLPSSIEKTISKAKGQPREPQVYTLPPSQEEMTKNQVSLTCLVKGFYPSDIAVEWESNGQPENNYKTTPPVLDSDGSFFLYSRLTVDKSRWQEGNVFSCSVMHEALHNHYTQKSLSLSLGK
light: MNIQMTQSPSAMSASVGDRVTITCKASQDIHRYLSWFQQKPGKVPKHLIYRANRLVSGVPSRFSGSGSGTEFTLTISSLQPEDFATYYCLQYDEFPYTFGGGTKVEIKRTVAAPSVFIFPPSDEQLKSGTASVVCLLNNFYPREAKVQWKVDNALQSGNSQESVTEQDSKDSTYSLSSTLTLSKADYEKHKVYACEVTHQGLSSPVTKSFNRGEC
notes: Parental variable domains on IgG4 S228P/L235E; cell-free system; also called IgG4PE-parental-CF
B6: in the test with human C1q, the binding result was “no binding”.

B7: anti-CD47 antibody IgG1-5m, cell-free expressed (antibody)
heavy: not shown
light: MNIQMTQSPSAMSASVGDRVTITCKASQDIHRYLSWFQQKPGKVPKHLIYRANRLVSGVPSRFSGSGSGTEFTLTISSLQPEDFATYYCLQYDEFPYTFGGGTKVEIKRTVAAPSVFIFPPSDEQLKSGTASVVCLLNNFYPREAKVQWKVDNALQSGNSQESVTEQDSKDSTYSLSSTLTLSKADYEKHKVYACEVTHQGLSSPVTKSFNRGEC
notes: IgG1 with 5 framework mutations in VH; also called IgG1-5m-CF
Regarding B7, the “% Ligand activity” value with human CD47 antigen [3] is 37.4%. In the test with human CD47 antigen [4], the Kd turned out to be 4.09 nM, the koff amounted to 0.0026 s⁻¹ and the on-rate constant (kon) turned out to be 636000 M⁻¹ s⁻¹. For the same molecule, the binding result in the test with human C1q is given as “no binding”. For the same molecule, binding in test [1] was characterised by a dissociation constant (Kd) of 0.12 nM.

B8: anti-CD47 antibody IgG4P-parental, CHO expressed (antibody)
VH: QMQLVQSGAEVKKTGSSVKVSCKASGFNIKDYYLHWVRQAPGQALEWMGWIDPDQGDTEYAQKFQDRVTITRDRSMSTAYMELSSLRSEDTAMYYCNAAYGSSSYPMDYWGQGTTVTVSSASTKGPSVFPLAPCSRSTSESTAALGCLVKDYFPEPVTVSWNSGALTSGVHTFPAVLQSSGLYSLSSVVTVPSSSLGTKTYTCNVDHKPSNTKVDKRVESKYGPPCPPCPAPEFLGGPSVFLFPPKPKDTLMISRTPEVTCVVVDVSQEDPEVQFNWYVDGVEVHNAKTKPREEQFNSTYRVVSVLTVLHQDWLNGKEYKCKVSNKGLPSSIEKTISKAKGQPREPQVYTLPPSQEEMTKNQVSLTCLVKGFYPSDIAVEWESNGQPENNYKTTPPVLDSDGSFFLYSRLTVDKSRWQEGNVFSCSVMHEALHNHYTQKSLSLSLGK
VL: NIQMTQSPSAMSASVGDRVTITCKASQDIHRYLSWFQQKPGKVPKHLIYRANRLVSGVPSRFSGSGSGTEFTLTISSLQPEDFATYYCLQYDEFPYTFGGGTKVEIKRTVAAPSVFIFPPSDEQLKSGTASVVCLLNNFYPREAKVQWKVDNALQSGNSQESVTEQDSKDSTYSLSSTLTLSKADYEKHKVYACEVTHQGLSSPVTKSFNRGEC
notes: Parental antibody as IgG4 S228P, made in CHO cells
Regarding B8, the binding result with human C1q is reported as “no binding”. Besides, the affinity in test [1], expressed as Kd, was 0.18 nM.

B9: anti-CD47 antibody IgG4PE-parental, CHO expressed (antibody)
VH: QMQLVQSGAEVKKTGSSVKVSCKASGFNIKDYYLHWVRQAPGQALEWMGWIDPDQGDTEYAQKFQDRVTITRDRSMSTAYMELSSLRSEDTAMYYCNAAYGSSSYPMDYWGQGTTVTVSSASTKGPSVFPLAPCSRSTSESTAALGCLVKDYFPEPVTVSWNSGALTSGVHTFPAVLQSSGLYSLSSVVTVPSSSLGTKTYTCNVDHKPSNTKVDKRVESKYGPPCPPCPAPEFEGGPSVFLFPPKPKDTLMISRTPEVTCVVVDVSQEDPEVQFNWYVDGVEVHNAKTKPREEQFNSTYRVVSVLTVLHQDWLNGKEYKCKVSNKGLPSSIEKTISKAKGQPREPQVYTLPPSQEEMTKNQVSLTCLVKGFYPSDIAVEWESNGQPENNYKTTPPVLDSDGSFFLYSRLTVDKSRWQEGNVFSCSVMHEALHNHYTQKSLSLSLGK
VL: NIQMTQSPSAMSASVGDRVTITCKASQDIHRYLSWFQQKPGKVPKHLIYRANRLVSGVPSRFSGSGSGTEFTLTISSLQPEDFATYYCLQYDEFPYTFGGGTKVEIKRTVAAPSVFIFPPSDEQLKSGTASVVCLLNNFYPREAKVQWKVDNALQSGNSQESVTEQDSKDSTYSLSSTLTLSKADYEKHKVYACEVTHQGLSSPVTKSFNRGEC
notes: Parental antibody as IgG4 S228P/L235E, made in CHO cells; also called IgG4-PE CHO; CHO IgG4PE
Consider B9, for which, in the test with human C1q, the binding result was “no binding”. In test [1], this molecule came in with a Kd of 0.21 nM.

B10: Anti-CD47 CF Control (antibody, V domains shown)
VH: QMQLVQSGAEVKKTGSSVKVSCKASGFNIKDYYLHWVRQAPGQALEWMGWIDPDQGDTEYAQKFQDRVTITRDRSMSTAYMELSSLRSEDTAMYYCNAAYGSSSYPMDYWGQGTTVTV
VL: NIQMTQSPSAMSASVGDRVTITCKASQDIHRYLSWFQQKPGKVPKHLIYRANRLVSGVPSRFSGSGSGTEFTLTISSLQPEDFATYYCLQYDEFPYTFGGGTKVEIK
notes: also called Control Antibody; anti-CD47 control antibody
Regarding B10, in the test with human CD47 antigen [3], the “% Ligand activity” value was determined as 39.4%. For the same molecule, in the test with human CD47 antigen [4], binding was characterised by a dissociation constant (Kd) of 3.16 nM, the koff was 0.00231 s⁻¹ and the on-rate (kon) worked out at 732000 M⁻¹ s⁻¹.

Values taken from patent publication US20170369572A1 (CELGENE, published 2017).
